# Source: patent US7696313B2, “Prodrug compounds with isoleucine” (priority 2000, dated 2010)
# Where “and” joins values, the source holds several entries; their conditions need not be identical. Identical values can stand only once. Entries after “also recorded” stand apart in the source; their conditions may differ.
# Columns and labels:
# [1] = Second single dose Maximum Tolerated Dose (SD-MTD) study, 49 days; conditions: mouse, in vivo, iv
# Method: (§1) In a second single dose Maximum Tolerated Dose (SD-MTD) study, groups of five normal ICR mice were administered intravenously bolus doses of Suc-Ile-Ala-Leu-Dox. The mice were observed daily for 49 days and body weights measured twice weekly.
# (§2) In a second single dose Maximum Tolerated Dose (SD-MTD) study, groups of five normal ICR mice were administered intravenous bolus doses of Suc-βAla-Ile-Ala-Leu-Dox. The mice were observed daily for 49 days and body weights measured twice weekly.
# [2] = tested on: normal ICR mice; test: as above; conditions: for acute toxicity within 24 hours: any dose level; for SD-MTD (mg/kg Dox=): doxorubicin equivalent
# Method: as §1, §2
# [3] = tested on: PC-3 (prostate carcinoma) cells; conditions: read-out: IC50 PC-3; 48 hours, 3H-thymidine incorporation
# Method: (§3) Adherent cells, LNCaP (prostate carcinoma), HT-29 (colon carcinoma) and PC-3 (prostate carcinoma), were cultured in DMEM media containing 10% heat inactivated fetal calf serum (FCS). On the day of the study the cells were detached from the plate with a trypsin solution. The collected cells were washed and resuspended at a concentration of 0.25×10^6 cells/ml in DMEM containing 10% FCS. 100 μl of cell suspension were added to 96 well plates and the plates were incubated for 3 hours to allow the cells to adhere. […] The plates were then incubated for 24 hours, pulsed with 10 μl of a 100 μCi/ml ^3H-thymidine and incubated for an additional 24 hours (total incubation time 48 hours). The plates were harvested using a 96 well Harvester (Packard Instruments) and counted on a Packard Top Count Counter. Four parameter logistic curves were fitted to the ^3H-thymidine incorporation as a function of drug molarity using Prism software to determine IC50 values.
# (§4) Prostate carcinoma cells, LNCaP and PC-3 cells or colon carcinoma cells HT-29, were incubated with increasing concentration of the indicated compounds for 48 hours and cellular proliferation was measured using the ^3H-thymidine assay.
# [4] = tested on: LNCaP (prostate carcinoma) cells; conditions: read-out: IC50 LNCaP; 48 hours, 3H-thymidine incorporation
# Method: as §3, §4
# [5] = tested on: HT-29 (colon carcinoma) cells; conditions: read-out: IC50 HT29; 48 hours, 3H-thymidine incorporation
# Method: as §3, §4
# [6] = Metabolism and clearance in normal mice (plasma and urine, LC MS/MS); type: in vivo
# Method: The metabolism and clearance of Suc-Ile-Ala-Leu-Dox was studied in normal mice. The mice were administered Suc-Ile-Ala-Leu-Dox at a single intravenous bolus dose of 117 mg/kg. Plasma samples were obtained at 1 and 4 hours. Plasma samples of 100 μl were transferred to Eppendorf tubes (1.5 mL) and an internal standard of daunorubicin (20 μL at 0.5 mg/ml) was added together with acetonitrile (400 μl). The tubes were capped and briefly vortexed followed by centrifugation at 14,000 rpm. 420 μl from each tube was removed and dried in vacuo. Each sample was reconstituted in 65 μl ammonium formate containing acetonitrile (20%) prior to analysis by reverse phase liquid chromatography in combination with tandem mass spectrometry (LC MS/MS).
# Urine was collected at 2 and 24 hours post administration from pairs of mice in metabolic cages. Urine samples were diluted with ammonium formate containing acetonitrile (20%) to give a target analyte concentration within the practical range of the LC MS/MS assay. 30 μl of each diluted sample was placed in an Eppendorf tube (1.5 ml) and an internal standard of daunorubicin (20 μL at 0.5 mg/ml) was added together with 50 μl of ammonium formate containing acetonitrile (20%). Each sample was then analyzed by LC MS/MS.
# An Agilent HP 1100. HPLC with DAD detector and Chemstation software was coupled to a PE Sciex API 365 mass spectrometer with an electrospray ion source.
# HPLC was performed on a TSK-Gel Super ODS, […], 4.6×50 mm (TosoHaas) reversed phase column equipped with a […] C18 guard disc (Higgins Analytical) and stainless steel frit (Upchurch Scientific). Chromatography was performed at room temperature. The flow rate was 0.5 ml/min. Injection volume was 50 μl. Gradient elution was performed using a mobile phase of 20 mM ammonium formate with increasing amounts of acetonitrile. The API 365 was operated at 365° C. in a multiple reaction monitoring mode, set to monitor specific analyte parent-daughter ion pairs. Integration of chromatograms was performed by MacQuan software (PE Sciex) and quantitation of each analyte obtained by comparison to previously obtained calibration curves. Daunorubicin was used as an internal standard in all cases.
# Percent of administered dose—plasma volume estimated at 40% of blood volume, which was calculated at 7% of animal's body weight.
# Plasma samples were obtained at 1 and 4 hours from separate mice. Urine was collected at 2 and 24 hours post administration from pairs of mice in metabolic cages. The plasma and urine samples were prepared and analyzed as described in Example 4.
# [7] = tested on: normal mice; test: Initial single dose Maximum Tolerated Dose (MTD) study, 28 days; type: in vivo; conditions: for single dose MTD fold higher than doxorubicin alone, after post-analysis: about 75% active compound, versus doxorubicin […] mg/kg; for acute toxicity / single-dose MTD, doxorubicin equivalent: intravenous bolus; for acute toxicity: all dose levels tested; for single-dose MTD, doxorubicin equivalent: normal mice; for single-dose MTD fold higher than doxorubicin alone: versus doxorubicin 4 mg/kg
# Method: (§5) In our initial single dose Maximum Tolerated Dose (MTD) study, groups of five normal mice were administered intravenous bolus doses of Suc-Ile-Ala-Leu-Dox. The mice were observed daily for 28 days and body weights measured twice weekly.
# (§6) The mice were observed daily for 28 days and body weights measured twice weekly.
# (§7) In the single dose Maximum Tolerated Dose (MTD) studies, groups of normal mice were administered intravenous bolus doses of the prodrug. The mice were observed daily for 28 days and body weights measured twice weekly. The MTD was estimated to be equal to the highest dose that produced no death in mice after 28 days.
# [8] = as above; type: in vivo, mice; conditions: mouse, in vivo
# Method: as §5, §6, §7
# [9] = tested on: tumor bearing mice; test: Repeat-dose tolerance (RD-MTD) in tumor bearing mice; type: in vivo
# Method: (§8) In repeat-dose studies in tumor bearing mice, groups of ten mice were dosed with various amounts of prodrug for a total of five doses at either five day or 1 week intervals.
# [10] = as above; type: in vivo; conditions: mouse, in vivo
# Method: as §8
# [11] = mouse, in vivo, iv, 100 umol/kg
# Method: (§9) Plasma was obtained from three individual animals in each group at 5 minutes, 1, 2, 4, or 6 hr.
# [12] = for Major Plasma Metabolite, Table 7 / Major Plasma Metabolite, Table 8: mice
# Method: as §9
# [13] = tested on: LNCaP, HT-29 and PC-3 cells; test: 3H-thymidine proliferation assay, stated across the cell lines used; type: cell-based; conditions: 48 hours, 3H-thymidine incorporation; read-out: IC50 of the positive control in the cell lines used
# Method: as §3, §4
# [14] = tested on: doxorubicin-resistant colorectal carcinoma LS174t; conditions: tolerated dose under this dosing regimen; cited from earlier work
# [15] = tested on: doxorubicin-resistant colorectal carcinoma LS174t; test: LS174t human colorectal carcinoma xenograft efficacy; type: in vivo, nude mice; conditions: uncorrected
# Method: as §8
# [16] = Metabolism and clearance in normal mice (plasma and urine, LC MS/MS); type: in vivo; conditions: after Suc-βAla-Ile-Ala-Leu-Dox 117 mg/kg
# [17] = tested on: tumor bearing mice; conditions: repeat dosing, 5 doses; cited from earlier work
# [18] = 28 days, uncorrected doses, read-out: SD MTD (mg/kg), Table 7
# [19] = SD MTD, doxorubicin equivalent dose, Table 8, value in parentheses, corrected results
# [20] = SD MTD, molar equivalent dose of doxorubicin, Table 7, value in parentheses, uncorrected
# [21] = corrected results, read-out: SD MTD (mg/kg), Table 8
# [22] = after Suc-Ile-Ala-Leu-Dox 117 mg/kg, collected 0-2 hours
# [23] = after Suc-Ile-Ala-Leu-Dox 117 mg/kg, collected 2-24 hours
Structure (SMILES),acute toxicity within 24 hours [2],SD-MTD (mg/kg Dox=) [2],IC50 [3] [µM],IC50 [4] [µM],IC50 [5] [µM],"single dose MTD fold higher than doxorubicin alone, after post-analysis [7]",acute toxicity [7],"single-dose MTD, doxorubicin equivalent ([7]; 28 days)",single-dose MTD fold higher than doxorubicin alone [7],"MTD [8, 18] [mg/kg]","MTD [8, 19] [mg/kg]","MTD [8, 20] [mg/kg]","MTD [8, 21] [mg/kg]",AUC(0-t) [11] [µM·h],"Major Plasma Metabolite, Table 7 [12]","Major Plasma Metabolite, Table 8 [12]","Urine 2 hr, percent of administered dose [6, 22]","Urine 24 hr, percent of administered dose [6, 23]",further results
CC[C@H](C)[C@H](NC(=O)CCNC(=O)CCC(=O)O)C(=O)N[C@@H](C)C(=O)N[C@@H](CC(C)C)C(=O)N[C@H]1C[C@H](O[C@H]2C[C@](O)(C(=O)CO)Cc3c(O)c4c(c(O)c32)C(=O)c2c(OC)cccc2C4=O)O[C@@H](C)[C@H]1O [Suc-βAla-Ile-Ala-Leu-Dox],no acute toxicity,42 mg/kg Dox=,57,0.19,38,approximately 3.7 fold,No acute toxicity,40 mg of doxorubicin/kg,approximately 10 fold,75,42,42,75,326,Leu-Dox,Leu-Dox,–,–,"MTD [1]: 75 mg/kg; morbidity or mortality ([2]; 75 mg/kg dose group): no morbidity or mortality; animals euthanized due to weight loss or paralysis ([2]; 100 mg/kg dose, by Day 21, groups of five): three; SD-MTD Molar Ratio (Dox=) ([2]; fold higher on a molar basis than SD-MTD of doxorubicin): 2.6; Urine 2 hr, percent of administered dose ([6]; mouse, in vivo): 12.7 % of administered dose; Urine 24 hr, percent of administered dose ([6]; mouse, in vivo): 4.81 % of administered dose; morbidity ([7]; 75 mg/kg dose group): no morbidity; animals euthanized due to treatment-related toxicity ([7]; 100 mg/kg dose group, Day 21, groups of five): two; animals euthanized due to treatment-related toxicity ([7]; 125 mg/kg dose group, Day 14, groups of five): four; MTD ([8]; iv, intravenous bolus, normal mice, 28 days, read-out: single-dose Maximum Tolerated Dose (MTD)): 75 mg/kg; RD-MTD, doxorubicin equivalent per dose ([9]; Q7Dx5 as printed): 30 mg/kg doxorubicin equivalent; RD-MTD as total exposure ([9]; after 5 doses (Q5DX5)): approximately 150 mg/kg doxorubicin equivalent; treated animals terminated due to signs of toxicity ([9]; high dose group (68 mg/kg, Q5DX5), groups of ten): Two; RD-MTD fold higher than RD-MTD / tolerated repeat dose level of doxorubicin ([9]; versus doxorubicin 4 mg/kg): at least 6.5 fold; MTD ([10]; Q7Dx5 as printed, based on efficacy study in Example 8, read-out: RD-MTD (repeat-dose MTD)): ~53 mg/kg; MTD ([10]; Repeat Dose MTD, doxorubicin equivalent dose, Table 8, value in parentheses, corrected results): 30 mg/kg; MTD ([10]; corrected results, Q 5D × 5 or Q 7D × 5, read-out: Repeat Dose MTD (mg/kg), Table 8): 53 mg/kg"
"COc1cccc2c1C(=O)c1c(O)c3c(c(O)c1C2=O)C[C@@](O)(C(=O)CO)C[C@@H]3O[C@H]1C[C@H](N)[C@H](O)[C@H](C)O1 [Doxorubicin, reference compound]",–,–,–,–,–,–,–,–,–,–,–,–,–,–,–,–,0.06 % of administered dose,0.36 % of administered dose,"Plasma 4 hr, percent of administered dose ([6]; mouse, in vivo, 4 h): 0.00 % of administered dose; IC50 [13]: 0.02 to 0.08 µM; efficacy of doxorubicin alone at its tolerated dose in LS174t model [14]: historically ineffective; also recorded: completely ineffective; Optimal Efficacy Repeat Dose (mg/kg) ([15]; five doses at five day or 1 week intervals, 60 days): 4 (4) mg/kg; Optimal Efficacy Repeat Dose, molar equivalent dose of doxorubicin ([15]; value in parentheses): 4 (4) mg/kg; Urine 2 hr, percent of administered dose ([16]; collected 0-2 hours): 0.21 % of administered dose; Urine 24 hr, percent of administered dose ([16]; collected 2-24 hours): 0.51 % of administered dose; tolerated repeat dose level of doxorubicin (standard safe RD efficacious dose) [17]: 4 mg/kg and 3 mg/kg"
CC[C@H](C)[C@H](NC(=O)CCC(=O)O)C(=O)N[C@@H](C)C(=O)N[C@@H](CC(C)C)C(=O)N[C@H]1C[C@H](O[C@H]2C[C@](O)(C(=O)CO)Cc3c(O)c4c(c(O)c32)C(=O)c2c(OC)cccc2C4=O)O[C@@H](C)[C@H]1O [Suc-Ile-Ala-Leu-Dox],no acute toxicity,56 mg/kg Dox= and 58 mg/kg Dox=,88,1.1,47,at least 3.3 fold,no acute toxicity,66 mg of doxorubicin/kg and 70 mg of doxorubicin/kg,at least 16 fold,> 117,56,> 70,94,452,Leu-Dox,Leu-Dox,3.9 % of administered dose,15.0 % of administered dose,"mortalities ([7]; doses up to 117 mg/kg, 28 days): no mortalities; relative exposure to doxorubicin ([12]; tripeptide vs tetrapeptide counterpart, leucine vs isoleucine compounds): two fold decrease"
